Reference: patent publication US20040175804A1, “Process for preparing dideoxyinosine using adenosine deaminase enzyme” (priority 2003, published 2004)

Tests used:
[1] = ADA activity assay (1 U = 1 μmol of ddA deaminated/min at 37° C.); type: biochemical; conditions: 1 unit = 1 μmol of ddA deaminated/min at 37° C.; on IPS-400 support
Description: The enzyme so derived should be assayed for activity. As used herein, a unit (U) of enzymatic activity is that amount of enzyme which will deaminate 1 μmol of ddA per minute at 37° C. Desirably, the final enzyme titer is from about 650-750 U/ml. The assay may be performed by adding enzyme to a 2.4% solution of ddA at 37° C. The reaction is allowed to proceed for 15 min while gently stirring. Tetrahydrofuran is added to stop the reaction. A sample is taken and run on HPLC to determine the amount of ddI formed.
The immobilized enzyme assays show an enzymatic activity of ˜100 U/g. (1 unit=1 μmol of ddA deaminated/min at 37° C.).

[2] = Conversion of a 52-60 g/L solution of ddA in water to ddI by adenosine deaminase; type: biochemical; conditions: for Conversion of ddA to ddI: 40 U/g ddA, 52-60 g/L ddA in water
Description: 100.0 g ddA is added to 1900 ml of water at 30° C. (mother liquor from previous runs can also be used). After the ddA has been added (complete dissolution is not necessary), 4000 U of immobilized rec human adenosine deaminase is added. […] The reaction is complete (approximately 5-8 hours) when the level of residual ddA is less than or equal to 1% of the original amount of ddA added. The enzyme solids are removed by filtration (20-30 μm media) and the enzyme cake is washed with 100 ml water. The used enzyme is held as a wet cake at 0-5° C. (for up to 72 hours) and can be recycled to another batch.
Microbial ADA from recombinant E. coli was partially purified and isolated as an ammonium sulfate suspension. E. coli fermentation broth (42 U ADA/mL, 2 L) was centrifuged and the cell pellet was collected and washed with 1 L 100 mM phosphate buffer pH 7.5. The cells were again centrifuged and resuspended in 2 L of the above buffer plus 20% glycerol. The cells were passed once through a microfluidizer. Cell debris was removed by centrifugation and the resulting supernatant was concentrated by ultrafiltration through a 30,000 MWCO cassette. The enzyme was concentrated to a final titer of 390 U/ml. Ammonium sulfate was added to a 50% saturation, the resulting precipitate was collected by centrifugation and re-suspended in 100 ml deionized water. The final titer of the slurry was 740 U/ml; the protein content of the slurry was ˜75 mg/ml.

B1: Recombinant human immobilized ADA: Human adenosine deaminase (SEQ ID NO: 1) expressed in E. coli, immobilized on glutaraldehyde-activated IPS-400 support (protein, listed as Homo sapiens)
chain: MAQTPAFDKPKVELHVHLDGSIKPETILYYGRRRGIALPANTAEGLLNVIGMDKPLTLPDFLAKFDYYMPAIAGCREAIKRIAYEFVEMKAKEGVVYVEVRYSPHLLANSKVEPIPWNQAEGDLTPDEVVALVGQGLQEGERDFGVKARSILCCMRHQPNWSPKVVELCKKYQQQTVVAIDLAGDETIPGSSLLPGHVQAYQEAVKSGIHRTVHAGEVGSAEVVKEAVDILKTERLGHGYHTLEDQALYNRLRQENMHFEICPWSSYLTGAWKPDTEHAVIRLKNDQANYSLNTDDPLIFKSTLDTDYQMTKRDMGFTEEEFKRLNINAAKSSFLPEDEKRELLDLLYKAYGMPPSASAGQNL
modifications: immobilized on glutaraldehyde-activated IPS-400 support; (1)..(363) gi 14043373
For B1, which “Enzymatic activity of immobilized enzyme” value [1] is on record?
Its value is roughly 100 U/g.

And the “Conversion of ddA to ddI” value ([2]; 30 °C, 4.5 hours)?
The value was 100%.

What about the “Conversion of ddA to ddI” value ([2]; 40 °C, 1.5 hours) of the same molecule?
Its value is 100%.

And the “Stability of the enzyme in the ddA to ddI reaction” value ([2]; compared with microbial enzymes)?
The value was “significantly more stable than microbial enzymes”.
